The target of assay [1] is T1, human type I IFN receptor on HEK-Blue IFN-α/β cells (human, UniProt P17181 28-557; P48551 27-515).
T1 sequence (looked up) 1: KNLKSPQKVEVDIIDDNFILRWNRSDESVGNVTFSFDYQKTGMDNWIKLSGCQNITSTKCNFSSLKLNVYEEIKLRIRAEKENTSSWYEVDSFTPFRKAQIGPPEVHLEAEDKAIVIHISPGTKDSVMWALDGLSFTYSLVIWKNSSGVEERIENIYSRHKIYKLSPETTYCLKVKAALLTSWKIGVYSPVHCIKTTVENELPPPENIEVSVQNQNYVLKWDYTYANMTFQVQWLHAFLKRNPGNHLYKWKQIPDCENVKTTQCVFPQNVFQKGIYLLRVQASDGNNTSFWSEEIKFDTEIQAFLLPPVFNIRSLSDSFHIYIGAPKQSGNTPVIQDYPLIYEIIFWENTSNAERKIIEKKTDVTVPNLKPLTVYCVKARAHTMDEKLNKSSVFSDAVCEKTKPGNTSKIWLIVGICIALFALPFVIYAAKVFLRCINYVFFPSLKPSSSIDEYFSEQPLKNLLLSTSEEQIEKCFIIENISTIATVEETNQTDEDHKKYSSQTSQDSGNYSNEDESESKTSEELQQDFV
T1 sequence (looked up) 2: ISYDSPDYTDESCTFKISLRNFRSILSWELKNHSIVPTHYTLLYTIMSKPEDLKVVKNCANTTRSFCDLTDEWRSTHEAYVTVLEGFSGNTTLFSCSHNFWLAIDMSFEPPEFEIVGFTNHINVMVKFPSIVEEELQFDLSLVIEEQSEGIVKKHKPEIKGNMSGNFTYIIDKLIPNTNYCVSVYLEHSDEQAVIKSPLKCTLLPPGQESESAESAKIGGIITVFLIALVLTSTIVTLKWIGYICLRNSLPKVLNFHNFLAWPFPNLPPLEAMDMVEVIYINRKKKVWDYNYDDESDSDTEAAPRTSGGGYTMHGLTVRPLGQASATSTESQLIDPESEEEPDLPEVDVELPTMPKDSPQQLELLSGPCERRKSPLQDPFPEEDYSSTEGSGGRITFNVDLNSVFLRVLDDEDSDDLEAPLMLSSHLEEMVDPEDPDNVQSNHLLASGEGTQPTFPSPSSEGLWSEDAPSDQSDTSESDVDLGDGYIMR
Kind of assay: cell-based or functional assay.

In another assay the target is human CD40 (human, UniProt P25942 21-277). Kind of assay: cell-based or functional assay.
Chain of human CD40 (P25942 21-277): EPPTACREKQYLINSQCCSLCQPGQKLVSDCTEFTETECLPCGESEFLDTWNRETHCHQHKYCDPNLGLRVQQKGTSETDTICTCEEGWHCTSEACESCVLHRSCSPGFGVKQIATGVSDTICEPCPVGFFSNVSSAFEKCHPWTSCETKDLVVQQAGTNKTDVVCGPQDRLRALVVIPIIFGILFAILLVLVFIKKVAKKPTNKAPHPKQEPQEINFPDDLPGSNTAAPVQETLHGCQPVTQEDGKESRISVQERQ

Experimental findings from patent US20230279137A1 (EVOTEC INTERNATIONAL, published 2023) are described below.

B1: IFA20 (antibody, human IgG2, kappa)
light: DIQMTQSPSSVSASVGDRVTITCRASQGIYSWLAWYQQKPGKAPNLLIYTASTLQSGVPSRFSGSGSGTDFTLTISSLQPEDFATYYCQQANIFPLTFGGGTKVEIKRTVAAPSVFIFPPSDEQLKSGTASVVCLLNNFYPREAKVQWKVDNALQSGNSQESVTEQDSKDSTYSLSSTLTLSKADYEKHKVYACEVTHQGLSSPVTKSFNRGECAEAAAKEAAAKAAEAAAKEAAAKAMSYNLLGFLQRSSNFQSQKLLWQLNGRLEYCLKDRMNFDIPEEIKQLQQFQKEDAALTIYEMLQNIFAIFRQDSSSTGWNETIVENLLANVYHQINHLKTVLEEKLEKEDFTRGKLMSSLHLKRYYGRILHYLKAKEYSHCAWTIVRVEILRNFYFINRLTGYLRN
heavy: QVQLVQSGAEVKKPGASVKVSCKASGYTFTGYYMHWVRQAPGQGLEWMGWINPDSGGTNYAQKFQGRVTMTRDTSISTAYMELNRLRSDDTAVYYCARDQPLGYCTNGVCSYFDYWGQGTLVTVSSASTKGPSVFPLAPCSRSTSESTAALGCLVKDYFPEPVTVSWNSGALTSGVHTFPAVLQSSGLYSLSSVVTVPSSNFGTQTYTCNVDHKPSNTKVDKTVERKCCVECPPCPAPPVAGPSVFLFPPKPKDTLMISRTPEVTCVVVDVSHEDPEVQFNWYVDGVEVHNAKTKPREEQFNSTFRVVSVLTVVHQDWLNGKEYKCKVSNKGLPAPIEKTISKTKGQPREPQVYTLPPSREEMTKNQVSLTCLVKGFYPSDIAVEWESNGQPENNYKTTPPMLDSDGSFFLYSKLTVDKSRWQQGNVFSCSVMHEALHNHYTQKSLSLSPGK
Take B1: the “IFNβ EC50 (ng/mL), SEAP reporter in HEK-Blue IFN-α/β cells” value (from here on “IFNβ EC50 (ng/mL), SEAP reporter”) in assay [1] was found to be 2.34 ng/mL. Moreover, in the assay with human CD40, the “CD40 EC50 (ng/mL), NFκB-SEAP reporter in HEK-Blue CD40L cells” value (“CD40 EC50 (ng/mL), NFκB-SEAP reporter” below) came to 182 ng/mL.

B2: IFA8 (antibody, human IgG2, kappa)
heavy: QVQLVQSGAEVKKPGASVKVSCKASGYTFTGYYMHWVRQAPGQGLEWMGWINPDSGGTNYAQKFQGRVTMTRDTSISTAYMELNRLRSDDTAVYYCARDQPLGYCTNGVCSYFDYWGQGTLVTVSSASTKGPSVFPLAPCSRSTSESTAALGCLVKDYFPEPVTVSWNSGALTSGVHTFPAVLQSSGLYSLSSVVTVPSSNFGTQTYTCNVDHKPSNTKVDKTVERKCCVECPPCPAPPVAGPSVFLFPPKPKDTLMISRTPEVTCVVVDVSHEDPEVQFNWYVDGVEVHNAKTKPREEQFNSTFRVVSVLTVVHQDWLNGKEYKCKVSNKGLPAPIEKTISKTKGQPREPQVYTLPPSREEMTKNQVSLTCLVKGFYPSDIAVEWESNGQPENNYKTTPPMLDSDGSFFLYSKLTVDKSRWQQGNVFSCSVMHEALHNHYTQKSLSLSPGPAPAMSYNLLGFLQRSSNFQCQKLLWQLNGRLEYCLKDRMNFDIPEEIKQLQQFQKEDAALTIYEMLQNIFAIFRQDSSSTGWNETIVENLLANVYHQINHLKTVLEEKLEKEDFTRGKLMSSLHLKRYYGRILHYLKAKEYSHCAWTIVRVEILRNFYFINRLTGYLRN
light: DIQMTQSPSSVSASVGDRVTITCRASQGIYSWLAWYQQKPGKAPNLLIYTASTLQSGVPSRFSGSGSGTDFTLTISSLQPEDFATYYCQQANIFPLTFGGGTKVEIKRTVAAPSVFIFPPSDEQLKSGTASVVCLLNNFYPREAKVQWKVDNALQSGNSQESVTEQDSKDSTYSLSSTLTLSKADYEKHKVYACEVTHQGLSSPVTKSFNRGEC
Consider B2, for which, in assay [1], the “IFNβ EC50 (ng/mL), SEAP reporter” value is 2.9 ng/mL. For the same molecule, in the assay with human CD40, the “CD40 EC50 (ng/mL), NFκB-SEAP reporter” value came to 39.7 ng/mL.

B3: IFA10 (antibody, human IgG2, kappa)
heavy: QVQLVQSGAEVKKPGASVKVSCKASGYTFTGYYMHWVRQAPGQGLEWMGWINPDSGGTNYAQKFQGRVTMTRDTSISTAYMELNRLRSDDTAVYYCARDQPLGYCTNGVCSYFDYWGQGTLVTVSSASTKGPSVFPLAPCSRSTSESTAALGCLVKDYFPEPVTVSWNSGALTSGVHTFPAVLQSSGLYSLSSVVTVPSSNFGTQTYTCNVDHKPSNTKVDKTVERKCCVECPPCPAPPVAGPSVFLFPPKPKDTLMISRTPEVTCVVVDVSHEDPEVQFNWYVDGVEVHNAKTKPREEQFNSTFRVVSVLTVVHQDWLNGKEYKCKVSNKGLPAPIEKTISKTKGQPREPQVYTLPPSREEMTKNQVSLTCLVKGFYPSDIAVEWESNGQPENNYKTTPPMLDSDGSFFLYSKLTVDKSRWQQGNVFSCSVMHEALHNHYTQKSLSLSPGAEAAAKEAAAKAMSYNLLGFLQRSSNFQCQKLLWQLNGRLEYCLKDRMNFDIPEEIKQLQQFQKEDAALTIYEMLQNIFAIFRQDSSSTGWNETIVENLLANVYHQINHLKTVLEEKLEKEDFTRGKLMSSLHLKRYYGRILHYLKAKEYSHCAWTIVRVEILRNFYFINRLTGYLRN
light: DIQMTQSPSSVSASVGDRVTITCRASQGIYSWLAWYQQKPGKAPNLLIYTASTLQSGVPSRFSGSGSGTDFTLTISSLQPEDFATYYCQQANIFPLTFGGGTKVEIKRTVAAPSVFIFPPSDEQLKSGTASVVCLLNNFYPREAKVQWKVDNALQSGNSQESVTEQDSKDSTYSLSSTLTLSKADYEKHKVYACEVTHQGLSSPVTKSFNRGEC
As to B3, in assay [1], the “IFNβ EC50 (ng/mL), SEAP reporter” value worked out at 4.5 ng/mL. For the same molecule, the “CD40 EC50 (ng/mL), NFκB-SEAP reporter” value in the assay with human CD40 stood at 26.5 ng/mL.

B4: IFA9 (antibody, human IgG2, kappa)
heavy: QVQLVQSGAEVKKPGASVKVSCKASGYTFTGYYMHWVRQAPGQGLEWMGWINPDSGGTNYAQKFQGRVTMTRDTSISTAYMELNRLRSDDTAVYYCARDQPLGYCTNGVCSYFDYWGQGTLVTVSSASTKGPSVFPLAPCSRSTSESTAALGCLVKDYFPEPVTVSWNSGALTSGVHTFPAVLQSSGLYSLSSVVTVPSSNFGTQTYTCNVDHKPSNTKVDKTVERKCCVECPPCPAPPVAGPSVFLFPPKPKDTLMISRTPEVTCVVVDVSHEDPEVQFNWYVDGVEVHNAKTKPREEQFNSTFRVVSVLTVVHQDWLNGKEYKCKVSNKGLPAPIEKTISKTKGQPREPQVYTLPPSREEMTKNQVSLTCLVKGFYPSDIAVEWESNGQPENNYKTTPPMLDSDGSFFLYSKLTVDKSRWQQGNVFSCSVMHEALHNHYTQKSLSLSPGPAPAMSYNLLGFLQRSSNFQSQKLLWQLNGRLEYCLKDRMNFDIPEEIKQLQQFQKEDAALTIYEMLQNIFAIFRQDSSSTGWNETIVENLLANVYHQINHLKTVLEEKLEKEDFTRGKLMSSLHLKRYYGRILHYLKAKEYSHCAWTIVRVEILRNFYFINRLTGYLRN
light: DIQMTQSPSSVSASVGDRVTITCRASQGIYSWLAWYQQKPGKAPNLLIYTASTLQSGVPSRFSGSGSGTDFTLTISSLQPEDFATYYCQQANIFPLTFGGGTKVEIKRTVAAPSVFIFPPSDEQLKSGTASVVCLLNNFYPREAKVQWKVDNALQSGNSQESVTEQDSKDSTYSLSSTLTLSKADYEKHKVYACEVTHQGLSSPVTKSFNRGEC
Regarding B4, the “IFNβ EC50 (ng/mL), SEAP reporter” value in assay [1] stood at 0.7 ng/mL. Further, the “CD40 EC50 (ng/mL), NFκB-SEAP reporter” value with human CD40 was 42.6 ng/mL.

B5: IFA1 (antibody, human IgG2, kappa)
light: DIQMTQSPSSVSASVGDRVTITCRASQGIYSWLAWYQQKPGKAPNLLIYTASTLQSGVPSRFSGSGSGTDFTLTISSLQPEDFATYYCQQANIFPLTFGGGTKVEIKRTVAAPSVFIFPPSDEQLKSGTASVVCLLNNFYPREAKVQWKVDNALQSGNSQESVTEQDSKDSTYSLSSTLTLSKADYEKHKVYACEVTHQGLSSPVTKSFNRGECAEAAAKEAAAKAMSYNLLGFLQRSSNFQCQKLLWQLNGRLEYCLKDRMNFDIPEEIKQLQQFQKEDAALTIYEMLQNIFAIFRQDSSSTGWNETIVENLLANVYHQINHLKTVLEEKLEKEDFTRGKLMSSLHLKRYYGRILHYLKAKEYSHCAWTIVRVEILRNFYFINRLTGYLRN
heavy: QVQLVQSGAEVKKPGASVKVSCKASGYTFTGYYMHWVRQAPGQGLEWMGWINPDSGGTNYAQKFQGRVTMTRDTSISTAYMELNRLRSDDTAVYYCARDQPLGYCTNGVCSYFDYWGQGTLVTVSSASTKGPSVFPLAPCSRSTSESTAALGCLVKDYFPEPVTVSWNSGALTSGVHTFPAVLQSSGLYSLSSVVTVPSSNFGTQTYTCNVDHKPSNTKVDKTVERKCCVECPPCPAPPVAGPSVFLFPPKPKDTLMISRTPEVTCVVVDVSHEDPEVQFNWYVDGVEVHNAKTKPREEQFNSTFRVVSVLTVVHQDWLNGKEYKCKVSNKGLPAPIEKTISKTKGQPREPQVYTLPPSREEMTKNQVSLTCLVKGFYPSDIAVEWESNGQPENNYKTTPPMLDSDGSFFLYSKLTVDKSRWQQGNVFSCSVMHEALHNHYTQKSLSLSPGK
With B5, in assay [1], the “IFNβ EC50 (ng/mL), SEAP reporter” value turned out to be 1.64 ng/mL. Also, in the assay with human CD40, the “CD40 EC50 (ng/mL), NFκB-SEAP reporter” value came to 74.1 ng/mL.

B6: IFA2 (antibody, human IgG2, kappa)
light: DIQMTQSPSSVSASVGDRVTITCRASQGIYSWLAWYQQKPGKAPNLLIYTASTLQSGVPSRFSGSGSGTDFTLTISSLQPEDFATYYCQQANIFPLTFGGGTKVEIKRTVAAPSVFIFPPSDEQLKSGTASVVCLLNNFYPREAKVQWKVDNALQSGNSQESVTEQDSKDSTYSLSSTLTLSKADYEKHKVYACEVTHQGLSSPVTKSFNRGECAEAAAKEAAAKAMSYNLLGFLQRSSNFQSQKLLWQLNGRLEYCLKDRMNFDIPEEIKQLQQFQKEDAALTIYEMLQNIFAIFRQDSSSTGWNETIVENLLANVYHQINHLKTVLEEKLEKEDFTRGKLMSSLHLKRYYGRILHYLKAKEYSHCAWTIVRVEILRNFYFINRLTGYLRN
heavy: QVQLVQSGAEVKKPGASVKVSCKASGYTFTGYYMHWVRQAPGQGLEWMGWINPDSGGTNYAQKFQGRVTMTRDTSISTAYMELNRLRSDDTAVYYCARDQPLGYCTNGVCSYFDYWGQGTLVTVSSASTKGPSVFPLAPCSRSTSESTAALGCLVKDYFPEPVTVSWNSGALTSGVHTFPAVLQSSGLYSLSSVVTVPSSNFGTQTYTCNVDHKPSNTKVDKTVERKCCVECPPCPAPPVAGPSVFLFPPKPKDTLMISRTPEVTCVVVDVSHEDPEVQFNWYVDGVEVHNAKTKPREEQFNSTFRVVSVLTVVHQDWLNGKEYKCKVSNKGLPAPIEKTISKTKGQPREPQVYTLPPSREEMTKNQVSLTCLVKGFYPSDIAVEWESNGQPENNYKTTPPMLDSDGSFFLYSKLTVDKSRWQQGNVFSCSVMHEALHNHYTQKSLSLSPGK
Consider B6, for which the “IFNβ EC50 (ng/mL), SEAP reporter” value in assay [1] was found to be 0.14 ng/mL. Also, the “CD40 EC50 (ng/mL), NFκB-SEAP reporter” value in the assay with human CD40 is 111 ng/mL.
